The results in this text go back to PMC3886910 (PLoS Neglected Tropical Diseases, 2014).

The target in experiment [1] is SjCP1084, recombinant (Schistosoma japonicum). Description: SDS-PAGE and western blot (oligomer bands).
Experiment [2] has as its target native SjCP3842 (Schistosoma japonicum (endogenous in egg and adult worm extracts)). Description: SDS-PAGE and immunoblot (oligomer bands).
Experiment [3] shares this target. Description: SDS-PAGE and immunoblot (oligomer bands). This is another data set of the same source. In general terms: A western blot detects proteins with antibodies after separation by electrophoresis.
Experiment [4] deals with native SjCP1531 (Schistosoma japonicum (endogenous in egg and adult worm extracts)). The experiment is described as follows: SDS-PAGE and immunoblot (oligomer bands).
Experiment [5] concerns the target SjCP1531, recombinant (Schistosoma japonicum). Description: SDS-PAGE and western blot (oligomer bands).
The target of experiment [6] is T1, SjCP3842 (Schistosoma japonicum, UniProt Q6PYV4).
T1 construct: gene CP3842
The experiment is described as follows: UV-visible differential spectral titration (Soret […] nm); also hemin-agarose pulldown and heme peroxidase binding assay.

For experiment [7], the target named is native SjCP1084 (Schistosoma japonicum (endogenous in egg and adult worm extracts)). The experiment is described as follows: SDS-PAGE and immunoblot (oligomer bands).
For experiment [8], the target named is SjCP3842, recombinant (Schistosoma japonicum). The experiment is described as follows: SEC. (In general: In gel filtration, larger molecules generally elute earlier.)
Experiment [9] shares this target. Description: SDS-PAGE and western blot (oligomer bands).

Where two headings read alike, the source gives them in different places.

In the case of SjCP1084, recombinant (natural protein), the stoichiometry N (commonly a count of units in the complex or per binding partner) in experiment [1] amounted to 4. Regarding native SjCP3842 (natural protein), the stoichiometry N in [2] worked out at 2; in experiment [3], 4. In experiment [4], native SjCP1531 (natural protein) came in with a stoichiometry N of 4. With SjCP1531, recombinant (natural protein), the stoichiometry N in [5] was determined as 4. `C=CC1=C(C)C2=Cc3c(C=C)c(C)c4[n]3[Fe][n]3c(c(C)c(CCC(=O)O)c3=CC3=NC(=C4)C(C)=C3CCC(=O)O)=CC1=N2` [heme]: the Kd – broadly, a measure of binding affinity in units of concentration – in experiment [6] amounted to 1610 nM. The compound native SjCP1084 (natural protein) gave a stoichiometry N in experiment [7] of 4. On to SjCP3842, recombinant (natural protein), for which the stoichiometry N in experiment [8] and in experiment [9] was 4 each time.
